Results published in publication PMC12211734, “In silico and in vitro characterisation and affinity maturation of human red blood cell binding aptamers†”.

B1: N4 aptamer (76 nt) (structured_DNA)
DNA: ATCCAGAGTGACGCAGCATGCGGGGAGAGGAGTGTGGGATGGGTTTGTTTGTTTAGGGTGGACACGGTGGCTTAGT
B2: BB1 aptamer (80 nt) (structured_DNA)
DNA: CTCCTCTGACTGTAACCACGTCGCGGGTAGGGGGAGGGCCGAGGAGGCTGTAGGTGGGTGGCATAGGTAGTCCAGAAGCC
B3: N1 aptamer (76 nt) (ssDNA)
DNA: ATCCAGAGTGACGCAGCACGGGTTGGGGCTGGTTGTGTGTTGTTTTTTTGGCTGTATGTGGACACGGTGGCTTAGT

How the values were obtained:
[1] = biological target: GLUT1 (glucose transporter band 4.5) (Homo sapiens) (UniProt P11166); experiment: ELONA; details: ELONA: protein coated at 10 nM in carbonate/bicarbonate pH 9.6; aptamer (1.5625 nM-5 uM, 95 C 5 min then snap-cooled) in 1x DPBS, 0.55 mM MgCl2, 0.05% …
[2] = biological target: T1, Glycophorin A (Homo sapiens, UniProt P02724 20-91); experiment: ELONA; one-site fit, R2 0.716; text says low micromolar; ELONA: protein coated at 10 nM in carbonate/bicarbonate pH 9.6; aptamer (1.5625 nM-5 uM, 95 C 5 min then snap-cooled) in 1x DPBS, 0.55 mM MgCl2, 0.05% Tween-20, 1% BSA, 1 h, room temperature; SA-HRP/TMB read-out at 450 nm; details: protein: recombinant; label: 5' biotin; hairpin, 2 loops predicted by Mfold; CD indicates parallel G4
[3] = biological target: T1, Glycophorin A; experiment: ELONA; one-site fit, R2 0.857; ELONA: protein coated at 10 nM in carbonate/bicarbonate pH 9.6; aptamer (1.5625 nM-5 uM, 95 C 5 min then snap-cooled) in 1x DPBS, 0.55 mM MgCl2, 0.05% Tween-20, 1% BSA, 1 h, room temperature; SA-HRP/TMB read-out at 450 nm; details: protein: recombinant; label: 5' biotin; hairpin, 3 loops predicted by Mfold; CD indicates parallel G4
[4] = biological target: T1, Glycophorin A; experiment: ELONA; one-site fit, R2 0.948; text says low micromolar; ELONA: protein coated at 10 nM in carbonate/bicarbonate pH 9.6; aptamer (1.5625 nM-5 uM, 95 C 5 min then snap-cooled) in 1x DPBS, 0.55 mM MgCl2, 0.05% Tween-20, 1% BSA, 1 h, room temperature; SA-HRP/TMB read-out at 450 nm; details: protein: recombinant; label: 5' biotin; hairpin, 2 loops predicted by Mfold; CD B-DNA-like

Sequence of GLUT1 (glucose transporter band 4.5) (Homo sapiens) (P11166 whole entry): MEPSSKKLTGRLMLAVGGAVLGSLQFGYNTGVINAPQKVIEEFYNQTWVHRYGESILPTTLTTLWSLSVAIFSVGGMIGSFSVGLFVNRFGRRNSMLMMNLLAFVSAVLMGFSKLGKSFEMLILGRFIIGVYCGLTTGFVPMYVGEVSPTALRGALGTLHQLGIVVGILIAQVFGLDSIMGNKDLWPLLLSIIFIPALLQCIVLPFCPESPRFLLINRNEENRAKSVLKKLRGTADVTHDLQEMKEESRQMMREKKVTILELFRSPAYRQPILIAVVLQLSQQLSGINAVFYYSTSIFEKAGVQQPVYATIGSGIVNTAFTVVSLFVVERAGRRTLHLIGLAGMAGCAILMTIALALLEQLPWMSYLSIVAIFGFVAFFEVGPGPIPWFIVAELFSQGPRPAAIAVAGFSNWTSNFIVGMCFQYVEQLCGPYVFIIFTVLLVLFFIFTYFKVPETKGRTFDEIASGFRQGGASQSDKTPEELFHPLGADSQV

Molecule	Kd [1] [nM]	also measured
ATCCAGAGTGACGCAGCACGGGTTGGGGCTGGTTGTGTGTTGTTTTTTTGGCTGTATGTGGACACGGTGGCTTAGT [N1 aptamer (76 nt)]	59.5	–
CTCCTCTGACTGTAACCACGTCGCGGGTAGGGGGAGGGCCGAGGAGGCTGTAGGTGGGTGGCATAGGTAGTCCAGAAGCC [BB1 aptamer (80 nt)]	41.6	–
ATCCAGAGTGACGCAGCATGCGGGGAGAGGAGTGTGGGATGGGTTTGTTTGTTTAGGGTGGACACGGTGGCTTAGT [N4 aptamer (76 nt)]	37.6	–
B1	–	Kd [2]: 354 ± 227 nM
B2	–	Kd [3]: 25 ± 10.3 nM
B3	–	Kd [4]: 356 ± 95.6 nM
